One variant from IntAct's records for PubMed 11520064 can be followed below.

B1: Frizzled-8 (Mus musculus), Q61091 (parent)
chain: MEWGYLLEVTSLLAALAVLQRSSGAAAASAKELACQEITVPLCKGIGYNYTYMPNQFNHDTQDEAGLEVHQFWPLVEIQCSPDLKFFLCSMYTPICLEDYKKPLPPCRSVCERAKAGCAPLMRQYGFAWPDRMRCDRLPEQGNPDTLCMDYNRTDLTTAAPSPPRRLPPPPPPGEQPPSGSGHSRPPGARPPHRGGSSRGSGDAAAAPPSRGGKARPPGGGAAPCEPGCQCRAPMVSVSSERHPLYNRVKTGQIANCALPCHNPFFSQDERAFTVFWIGLWSVLCFVSTFATVSTFLIDMERFKYPERPIIFLSACYLFVSVGYLVRLVAGHEKVACSGGAPGAGGAGGAGGAAAAGAGAAGAGASSPGARGEYEELGAVEQHVRYETTGPALCTVVFLLVYFFGMASSIWWVILSLTWFLAAGMKWGNEAIAGYSQYFHLAAWLVPSVKSIAVLALSSVDGDPVAGICYVGNQSLDNLRGFVLAPLVIYLFIGTMFLLAGFVSLFRIRSVIKQQGGPTKTHKLEKLMIRLGLFTVLYTVPAAVVVACLFYEQHNRPRWEATHNCPCLRDLQPDQARRPDYAVFMLKYFMCLVVGITSGVWVWSGKTLESWRALCTRCCWASKGAAVGAGAGGSGPGGSGPGPGGGGGHGGGGGSLYSDVSTGLTWRSGTASSVSYPKQMPLSQV

Variants of B1 are the subject of the test. To be noted: with gopc_mouse Gopc.
As for V685A, the “effect of a mutation on the interaction” value is “disrupting interaction”.
